Target: wildtype PV1 VLPs (74S empty capsids, N-antigenic form) (poliovirus serotype 1 (PV1), Mahoney strain) (UniProt P03300)
UniProt P03300, sequence (P03300 2-341 limits assumed, chain 1 of 3): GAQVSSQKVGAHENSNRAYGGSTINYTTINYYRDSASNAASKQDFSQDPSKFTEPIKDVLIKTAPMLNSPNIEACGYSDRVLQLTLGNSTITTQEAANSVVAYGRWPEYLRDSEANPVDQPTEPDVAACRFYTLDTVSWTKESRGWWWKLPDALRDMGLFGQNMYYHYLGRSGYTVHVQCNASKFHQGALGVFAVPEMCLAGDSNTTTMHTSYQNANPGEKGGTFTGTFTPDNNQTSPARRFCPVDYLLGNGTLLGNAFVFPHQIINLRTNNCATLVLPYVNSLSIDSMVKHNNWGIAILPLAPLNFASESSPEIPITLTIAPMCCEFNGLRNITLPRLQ
UniProt P03300, sequence (P03300 342-579 limits assumed, chain 2 of 3): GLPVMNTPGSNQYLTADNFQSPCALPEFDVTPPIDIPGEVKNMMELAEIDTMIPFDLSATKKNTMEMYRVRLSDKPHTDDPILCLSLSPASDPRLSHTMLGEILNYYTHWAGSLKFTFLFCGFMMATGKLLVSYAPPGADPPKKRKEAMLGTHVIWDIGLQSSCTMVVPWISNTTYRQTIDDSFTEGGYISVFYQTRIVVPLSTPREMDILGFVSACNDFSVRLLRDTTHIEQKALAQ
UniProt P03300, sequence (P03300 580-881 limits assumed, chain 3 of 3): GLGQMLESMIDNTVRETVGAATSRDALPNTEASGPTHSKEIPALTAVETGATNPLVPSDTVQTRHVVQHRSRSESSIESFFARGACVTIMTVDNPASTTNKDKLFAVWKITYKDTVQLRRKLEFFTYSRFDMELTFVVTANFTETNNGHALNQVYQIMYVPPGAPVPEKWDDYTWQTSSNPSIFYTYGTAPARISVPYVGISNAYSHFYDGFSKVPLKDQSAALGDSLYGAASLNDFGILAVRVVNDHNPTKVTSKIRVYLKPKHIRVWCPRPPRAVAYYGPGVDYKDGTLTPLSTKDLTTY

Novus 14D2(7C5) monoclonal antibody showed a N-antigenic units/µl (N-antigenic units/µl) of 6.15.

Reference: patent US20190117763A1
